The test concerns the target T1, Tetanus toxoid (UniProt P04958 2-1315).
T1 construct: also called TT
The test is described as follows: ELISA screen of hybridoma supernatants. (In general: An ELISA detects its analyte on a solid surface through an enzyme-linked reagent.)

This is an account of results in US20050014931A1 (ABGENIX, published 2005).

T1 sequence (P04958 2-457 limits assumed, chain 1 of 2): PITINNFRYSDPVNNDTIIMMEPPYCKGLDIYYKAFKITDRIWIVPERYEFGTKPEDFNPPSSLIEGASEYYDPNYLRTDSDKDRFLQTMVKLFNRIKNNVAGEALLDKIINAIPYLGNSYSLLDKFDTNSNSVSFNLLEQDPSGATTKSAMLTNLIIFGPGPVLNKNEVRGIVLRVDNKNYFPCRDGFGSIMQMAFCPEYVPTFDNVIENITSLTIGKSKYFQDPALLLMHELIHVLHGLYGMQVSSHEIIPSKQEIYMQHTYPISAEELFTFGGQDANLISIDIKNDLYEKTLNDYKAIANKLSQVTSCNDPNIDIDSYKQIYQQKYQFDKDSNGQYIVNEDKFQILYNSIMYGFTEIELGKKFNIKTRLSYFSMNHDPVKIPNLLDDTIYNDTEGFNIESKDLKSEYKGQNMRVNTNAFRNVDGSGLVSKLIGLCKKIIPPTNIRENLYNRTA
T1 sequence (P04958 458-1315 limits assumed, chain 2 of 2): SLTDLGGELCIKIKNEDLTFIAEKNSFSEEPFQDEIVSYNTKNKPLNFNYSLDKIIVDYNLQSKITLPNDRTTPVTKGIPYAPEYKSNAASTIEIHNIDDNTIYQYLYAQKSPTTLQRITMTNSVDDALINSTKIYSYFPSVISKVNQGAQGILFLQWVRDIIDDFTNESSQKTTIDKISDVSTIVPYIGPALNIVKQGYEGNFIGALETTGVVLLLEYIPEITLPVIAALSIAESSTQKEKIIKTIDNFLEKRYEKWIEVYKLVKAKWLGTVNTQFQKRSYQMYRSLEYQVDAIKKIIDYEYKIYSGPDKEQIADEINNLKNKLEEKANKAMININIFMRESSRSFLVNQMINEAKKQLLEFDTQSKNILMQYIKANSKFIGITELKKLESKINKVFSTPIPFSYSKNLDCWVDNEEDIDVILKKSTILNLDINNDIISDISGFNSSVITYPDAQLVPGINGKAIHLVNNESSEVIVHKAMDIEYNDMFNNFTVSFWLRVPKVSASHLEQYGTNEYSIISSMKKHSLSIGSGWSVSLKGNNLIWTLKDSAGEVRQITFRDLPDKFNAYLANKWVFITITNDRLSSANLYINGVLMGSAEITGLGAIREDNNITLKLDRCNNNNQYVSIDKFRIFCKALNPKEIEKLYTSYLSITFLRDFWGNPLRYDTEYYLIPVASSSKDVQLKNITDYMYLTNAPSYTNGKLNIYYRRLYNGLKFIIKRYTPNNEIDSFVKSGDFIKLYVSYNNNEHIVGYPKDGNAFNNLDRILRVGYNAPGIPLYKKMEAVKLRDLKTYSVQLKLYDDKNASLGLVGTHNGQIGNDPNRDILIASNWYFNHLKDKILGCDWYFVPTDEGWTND

B1: Mab 1F10/7C5 (antibody, V domains shown)
VH: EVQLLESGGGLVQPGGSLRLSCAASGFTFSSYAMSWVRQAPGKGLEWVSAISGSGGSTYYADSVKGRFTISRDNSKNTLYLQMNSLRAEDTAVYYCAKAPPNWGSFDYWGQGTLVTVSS
VL: DIELTQSPLSLPVTLGQPASISCRSSQSLVYSDGNTYLNWFQQRPGQSPRRLIYKVSNWDSGVPDRFSGSGSGTDFTLKISRVEAEDVGVYYCMQGTHWPRTFGQGTKVEIKR
notes: also called Mab 7C5
Consider B1, for which the binding result is “no binding”.

B2: Mab 1A2 (antibody, V domains shown)
VH: not shown
VL: DIELTQSPDFQSVTPKEKVTITCRASQSIGSSLHWYQQKPDQSPKLLIKYASQSFSGVPSRFSGSGSGTDFTLTINSLEAEDAATYYCHQSSSLPRTFGQGTKVEIKR
On to B2, for which the binding result was “no binding”.
